One block for each binder: values may come before it.
What was measured:
Assay in all cases: holdup assay
Parameters in all cases: key: below the threshold = too weak to quantify, mostly under pKd 3.1 to 4
APBA2_2, Q99767 = target: T1, APBA2_2, Q99767
T1 sequence (Q99767 654-744, limits assumed, looked up): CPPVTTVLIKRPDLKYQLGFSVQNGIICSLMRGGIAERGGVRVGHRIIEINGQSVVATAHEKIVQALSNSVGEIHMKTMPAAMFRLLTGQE

ARHGAP21, Q5T5U3 = target: T2, ARHGAP21, Q5T5U3
T2 sequence (Q5T5U3 45-169, limits assumed, looked up): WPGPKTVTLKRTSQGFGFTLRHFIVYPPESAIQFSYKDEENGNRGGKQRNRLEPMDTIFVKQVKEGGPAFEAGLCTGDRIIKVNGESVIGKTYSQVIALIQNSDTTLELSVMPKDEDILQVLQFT

DLG2_3, Q15700 = target: DLG2_3, Q15700
DLG3_3, Q92796 = target: T3, DLG3_3, Q92796
T3 sequence (Q92796 374-475, limits assumed, looked up): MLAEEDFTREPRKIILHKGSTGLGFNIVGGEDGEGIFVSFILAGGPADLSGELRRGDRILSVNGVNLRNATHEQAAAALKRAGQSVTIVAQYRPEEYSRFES

FRMPD2_3, Q68DX3 = target: FRMPD2_3, Q68DX3
FRMPD4, Q14CM0 = target: FRMPD4, Q14CM0
GOPC, Q9HD26 = target: GOPC, Q9HD26
GORASP2, Q9H8Y8 = target: GORASP2, Q9H8Y8
HTRA4, P83105 = target: T4, HTRA4, P83105
T4 sequence (P83105 378-476, limits assumed, looked up): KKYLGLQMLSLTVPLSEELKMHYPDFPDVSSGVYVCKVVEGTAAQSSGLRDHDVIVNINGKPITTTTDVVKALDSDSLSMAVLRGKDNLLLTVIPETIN

IL16_3, Q14005 = target: IL16_3, Q14005
IL16_4, Q14005 = target: IL16_4, Q14005
Inadl_4, Q8NI35 = target: Inadl_4, Q8NI35
Inadl_6, Q8NI35 = target: Inadl_6, Q8NI35
Inadl_9, Q8NI35 = target: Inadl_9, Q8NI35
LNX1_3, Q8TBB1 = target: LNX1_3, Q8TBB1
LNX2_3, Q8N448 = target: T5, LNX2_3, Q8N448
T5 sequence (Q8N448 463-564, limits assumed, looked up): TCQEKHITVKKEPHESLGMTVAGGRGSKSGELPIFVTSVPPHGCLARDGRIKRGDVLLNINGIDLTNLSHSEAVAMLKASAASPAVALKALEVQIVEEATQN

LRRC7, Q96NW7 = target: T6, LRRC7, Q96NW7
T6 sequence (Q96NW7 1440-1537, limits assumed, looked up): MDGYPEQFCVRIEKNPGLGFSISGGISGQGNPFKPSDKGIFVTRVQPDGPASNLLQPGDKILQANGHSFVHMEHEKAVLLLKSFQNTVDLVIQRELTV

MAGI1_1, Q96QZ7 = target: MAGI1_1, Q96QZ7
MAGI1_2, Q96QZ7 = target: MAGI1_2, Q96QZ7
MAGI2_4, Q86UL8 = target: MAGI2_4, Q86UL8
MAGI3_2, Q5TCQ9 = target: MAGI3_2, Q5TCQ9
NHERF4_2, Q86UT5 = target: NHERF4_2, Q86UT5
NOS1, P29475 = target: NOS1, P29475
PARD3B_1, Q8TEW8 = target: T7, PARD3B_1, Q8TEW8
T7 sequence (Q8TEW8 196-299, limits assumed, looked up): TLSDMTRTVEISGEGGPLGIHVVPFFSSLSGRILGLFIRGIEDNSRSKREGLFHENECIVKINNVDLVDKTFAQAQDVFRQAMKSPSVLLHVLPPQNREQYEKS

PCLO, Q9Y6V0 = target: T8, PCLO, Q9Y6V0
T8 sequence (Q9Y6V0 4491-4600, limits assumed, looked up): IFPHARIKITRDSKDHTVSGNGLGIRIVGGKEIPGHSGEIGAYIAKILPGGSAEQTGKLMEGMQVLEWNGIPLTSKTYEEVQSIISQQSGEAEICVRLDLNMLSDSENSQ

SHANK1, Q9Y566 = target: T9, SHANK1, Q9Y566
T9 sequence (Q9Y566 658-767, limits assumed, looked up): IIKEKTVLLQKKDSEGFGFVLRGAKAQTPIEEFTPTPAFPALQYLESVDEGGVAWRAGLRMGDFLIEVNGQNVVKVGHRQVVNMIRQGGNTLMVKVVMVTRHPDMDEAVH

SYNJ2BP, P57105 = target: T10, SYNJ2BP, P57105
T10 sequence (P57105 8-110, limits assumed, looked up): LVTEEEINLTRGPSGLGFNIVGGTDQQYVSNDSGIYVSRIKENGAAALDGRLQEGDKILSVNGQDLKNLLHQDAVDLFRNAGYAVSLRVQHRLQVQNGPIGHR

[1] = plain residues with an end cap or a label only (N-terminal biotin on a linker: ttds)
[2] = plain residues with an end cap or a label only (N-terminal biotin on a linker: ado-ado)

Chain of LNX1_3, Q8TBB1 (Q8TBB1 500-596): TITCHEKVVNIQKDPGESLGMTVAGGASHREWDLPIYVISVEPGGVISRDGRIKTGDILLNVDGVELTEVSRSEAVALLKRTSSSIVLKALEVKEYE
Chain of MAGI3_2, Q5TCQ9 (Q5TCQ9 398-503): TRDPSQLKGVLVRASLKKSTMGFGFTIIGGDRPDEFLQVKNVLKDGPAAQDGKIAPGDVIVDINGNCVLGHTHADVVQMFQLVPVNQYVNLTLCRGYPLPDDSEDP
Chain of Inadl_6, Q8NI35 (Q8NI35 1058-1167): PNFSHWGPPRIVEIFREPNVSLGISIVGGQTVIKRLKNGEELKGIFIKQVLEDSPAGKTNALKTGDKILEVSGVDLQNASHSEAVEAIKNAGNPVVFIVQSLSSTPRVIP
Chain of MAGI2_4, Q86UL8 (Q86UL8 772-865): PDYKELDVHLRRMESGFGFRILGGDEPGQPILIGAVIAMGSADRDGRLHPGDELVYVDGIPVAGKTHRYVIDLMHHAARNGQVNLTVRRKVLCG
Chain of Inadl_9, Q8NI35 (Q8NI35 1530-1615): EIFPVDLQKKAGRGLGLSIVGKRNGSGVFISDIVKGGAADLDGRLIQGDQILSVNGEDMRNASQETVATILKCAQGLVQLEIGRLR
Chain of FRMPD2_3, Q68DX3 (Q68DX3 1073-1166): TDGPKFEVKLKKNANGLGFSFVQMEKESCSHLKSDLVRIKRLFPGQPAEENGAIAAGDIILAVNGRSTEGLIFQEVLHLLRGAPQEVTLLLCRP
Chain of NHERF4_2, Q86UT5 (Q86UT5 220-308): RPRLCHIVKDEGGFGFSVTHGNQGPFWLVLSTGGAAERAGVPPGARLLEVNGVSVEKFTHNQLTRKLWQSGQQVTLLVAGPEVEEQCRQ
Chain of IL16_4, Q14005 (Q14005 1229-1329): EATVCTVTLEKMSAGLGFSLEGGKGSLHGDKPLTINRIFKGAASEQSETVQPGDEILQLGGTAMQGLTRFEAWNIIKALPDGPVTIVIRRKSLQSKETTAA
Chain of FRMPD4, Q14CM0 (Q14CM0 67-160): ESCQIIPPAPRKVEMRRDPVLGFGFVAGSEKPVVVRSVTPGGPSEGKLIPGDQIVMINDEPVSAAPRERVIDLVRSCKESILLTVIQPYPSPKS
Chain of NOS1, P29475 (P29475 9-101): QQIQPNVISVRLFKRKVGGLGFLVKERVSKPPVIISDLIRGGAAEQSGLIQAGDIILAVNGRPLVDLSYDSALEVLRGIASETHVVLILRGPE
Chain of MAGI1_2, Q96QZ7 (Q96QZ7 456-580): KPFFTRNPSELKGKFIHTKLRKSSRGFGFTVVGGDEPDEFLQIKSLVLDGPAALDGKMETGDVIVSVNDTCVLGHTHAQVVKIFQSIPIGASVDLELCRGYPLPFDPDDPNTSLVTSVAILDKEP
Chain of IL16_3, Q14005 (Q14005 1107-1207): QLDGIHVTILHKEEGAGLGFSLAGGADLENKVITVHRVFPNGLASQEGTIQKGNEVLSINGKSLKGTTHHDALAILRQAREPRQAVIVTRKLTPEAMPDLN
Chain of Inadl_4, Q8NI35 (Q8NI35 547-651): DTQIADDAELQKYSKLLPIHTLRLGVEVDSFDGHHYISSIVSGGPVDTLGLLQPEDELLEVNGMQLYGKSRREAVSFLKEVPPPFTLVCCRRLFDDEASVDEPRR
Chain of MAGI1_1, Q96QZ7 (Q96QZ7 1-106): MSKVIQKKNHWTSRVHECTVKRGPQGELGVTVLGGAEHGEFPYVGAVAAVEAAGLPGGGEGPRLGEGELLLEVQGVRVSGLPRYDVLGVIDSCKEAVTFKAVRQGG

pKd (APBA2_2, Q99767; [1]): below the threshold
pKd (ARHGAP21, Q5T5U3; [1]): 3.56
pKd (DLG2_3, Q15700; [1]): below the threshold
pKd (DLG3_3, Q92796; [1]): below the threshold
pKd (FRMPD2_3, Q68DX3; [1]): below the threshold
pKd (FRMPD4, Q14CM0; [1]): 4.7
pKd (GOPC, Q9HD26; [1]): below the threshold
pKd (GORASP2, Q9H8Y8; [1]): 3.48
pKd (HTRA4, P83105; [1]): below the threshold
pKd (IL16_3, Q14005; [1]): below the threshold
pKd (IL16_4, Q14005; [1]): below the threshold
pKd (Inadl_4, Q8NI35; [1]): below the threshold
pKd (Inadl_6, Q8NI35; [1]): below the threshold
pKd (Inadl_9, Q8NI35; [1]): below the threshold
pKd (LNX1_3, Q8TBB1; [1]): below the threshold
pKd (LNX2_3, Q8N448; [1]): below the threshold
pKd (LRRC7, Q96NW7; [1]): below the threshold
pKd (MAGI1_1, Q96QZ7; [1]): below the threshold
pKd (MAGI1_2, Q96QZ7; [1]): below the threshold
pKd (MAGI2_4, Q86UL8; [1]): below the threshold
pKd (MAGI3_2, Q5TCQ9; [1]): below the threshold
pKd (NHERF4_2, Q86UT5; [1]): below the threshold
pKd (NOS1, P29475; [1]): below the threshold
pKd (PARD3B_1, Q8TEW8; [1]): below the threshold
pKd (PCLO, Q9Y6V0; [1]): below the threshold
pKd (SHANK1, Q9Y566; [1]): 4.95
pKd (SYNJ2BP, P57105; [1]): below the threshold
B1: PODXL, O00592 (peptide)
chain: DLDEEEDTHL

pKd (APBA2_2, Q99767; [2]): below the threshold
pKd (ARHGAP21, Q5T5U3; [2]): below the threshold
pKd (DLG2_3, Q15700; [2]): 3.96
pKd (DLG3_3, Q92796; [2]): 4.02
pKd (FRMPD2_3, Q68DX3; [2]): 3.56
pKd (FRMPD4, Q14CM0; [2]): 3.9
pKd (GOPC, Q9HD26; [2]): 3.58
pKd (GORASP2, Q9H8Y8; [2]): below the threshold
pKd (HTRA4, P83105; [2]): below the threshold
pKd (IL16_3, Q14005; [2]): below the threshold
pKd (IL16_4, Q14005; [2]): 3.52
pKd (Inadl_4, Q8NI35; [2]): below the threshold
pKd (Inadl_6, Q8NI35; [2]): 4.1
pKd (Inadl_9, Q8NI35; [2]): 3.49
pKd (LNX1_3, Q8TBB1; [2]): below the threshold
pKd (LNX2_3, Q8N448; [2]): below the threshold
pKd (LRRC7, Q96NW7; [2]): 3.93
pKd (MAGI1_1, Q96QZ7; [2]): below the threshold
pKd (MAGI1_2, Q96QZ7; [2]): below the threshold
pKd (MAGI2_4, Q86UL8; [2]): below the threshold
pKd (MAGI3_2, Q5TCQ9; [2]): 4.56
pKd (NHERF4_2, Q86UT5; [2]): below the threshold
pKd (NOS1, P29475; [2]): 4.17
pKd (PARD3B_1, Q8TEW8; [2]): below the threshold
pKd (PCLO, Q9Y6V0; [2]): below the threshold
pKd (SHANK1, Q9Y566; [2]): 4.41
pKd (SYNJ2BP, P57105; [2]): 5.25
B2: DGKI, O75912 (peptide)
chain: IGHEDLETAV
